Data taken from PMC7581431.

Target: Lip-NKD-HisC (human (identical sequence in mouse and human)) (UniProt Q969G9)
Assay: aggregation and co-aggregation assay read by PAGE; purified proteins in 15 mM acetate, 150 mM NaCl, pH 5.0 mixed in different ratios; after 10 min 1 M Tris-HCl pH 8.0 added to 200 mM; after 20 min boiled 10 min in LDS sample buffer; PAGE under denaturing and reducing conditions

Chain of Lip-NKD-HisC (human (identical sequence in mouse and human)) (Q969G9 whole entry): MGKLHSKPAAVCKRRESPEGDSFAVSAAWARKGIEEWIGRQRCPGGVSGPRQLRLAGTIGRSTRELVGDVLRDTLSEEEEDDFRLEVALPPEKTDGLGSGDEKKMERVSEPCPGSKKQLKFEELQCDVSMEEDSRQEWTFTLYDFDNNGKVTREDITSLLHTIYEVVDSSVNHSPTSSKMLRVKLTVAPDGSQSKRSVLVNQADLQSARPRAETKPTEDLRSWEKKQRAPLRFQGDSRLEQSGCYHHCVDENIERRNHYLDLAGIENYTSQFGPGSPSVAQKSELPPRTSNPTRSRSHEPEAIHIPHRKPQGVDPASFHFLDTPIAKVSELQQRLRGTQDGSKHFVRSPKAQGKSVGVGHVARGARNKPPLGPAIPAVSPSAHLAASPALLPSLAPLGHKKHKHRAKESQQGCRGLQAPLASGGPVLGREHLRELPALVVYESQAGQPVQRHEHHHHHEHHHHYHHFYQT

With KHVHHHYIHHHA (domain or fragment) [MBP-Axin2-HisC] as the binder, how does the molecules per core (molecules per core) read?
Its molecules per core (molecules per core) is under 4.
